The target of assay [1] is T1, FcγRIIb (human, UniProt P31994 43-217).
T1 construct: extracellular domain; for crystallography expressed with Kifunesine and trimmed with Endo F1; also called FcgRIIb; FcgR2b; not shown: His tag attached to the C terminus
T1 sequence (looked up): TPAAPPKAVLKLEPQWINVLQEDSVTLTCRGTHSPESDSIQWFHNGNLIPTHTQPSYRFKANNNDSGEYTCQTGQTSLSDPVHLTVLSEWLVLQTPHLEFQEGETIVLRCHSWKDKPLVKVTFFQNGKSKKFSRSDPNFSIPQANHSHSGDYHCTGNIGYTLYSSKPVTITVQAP
The assay can be described thus: SPR (Biacore), relative binding; compared with GpH7-A5/GpH7-B12/GpL16-k0. Here is the method: (§1) Analysis of interaction between objective antibody and the FcγR was carried out using Biacore T100 (GE Healthcare). HBS-EP+ (GE Healthcare) was used as the running buffer, and the measurement temperature was set to 25° C. Chips produced by immobilizing the antigen peptide by the amine coupling method to a Series S Sencor Chip CM5 (GE Healthcare), or alternatively, chips produced by allowing preliminarily biotinylated antigen peptides to interact with and immobilize onto a Series S Sensor Chip SA (certified) (GE Healthcare) were used. Antibodies of interest were captured onto an antigen peptide-immobilized chip, and allowed to interact to each FcγR diluted with running buffer. To regenerate and repeatedly use the chip, the antibodies captured on the chip were washed off by reacting 10 mM glycine-HCl, pH 1.5.
(In general: In SPR one partner is held on a chip, and binding of the other changes the refractive index at the surface.)

Assay [2] has as its target T2, FcγRIIIa (human, UniProt P08637 17-208).
T2 construct: extracellular domain; The protein is soluble, His-tagged, and was expressed in FreeStyle293 cells; also called FcgRIIIa; CD16A; not shown: His tag attached to the C terminus
The assay can be described thus: SPR (Biacore T100); antibody captured on an antigen peptide chip, FcγRIIIa as analyte; 1:1 Langmuir kinetic fit. The protocol: (§2) Then, K334G was also assessed in the same manner. GpH7-TA40 (SEQ ID NO: 47) resulting from the introduction of K334G into GpH7-TA7 was constructed, and expressed and prepared in combination with GpH7-B78 according to the method described in Reference Example 1. Furthermore, GpH7-TA50 (SEQ ID NO: 48) resulting from the introduction of K334G into GpH7-B78 was constructed, and expressed and prepared in combination with GpH7-TA7 according to the method described in Reference Example 1. To assess the effect of combinations with K334G, the prepared antibodies were compared for the FcγRIIIa binding according to the method described in Reference Example 2 (Table 18).
as §1

Assay [3] addresses T2, FcγRIIIa. The assay can be described thus: SPR (Biacore); KD of GpH7-TA7/GpH7-B78/GpL16-k0 for FcγRIIIa divided by the KD of this antibody (the reference itself). The protocol:
as §2
as §1, with “To regenerate and repeatedly use the chip, the antibodies captured on the chip were washed off by reacting 10 mM glycine-HCl, pH 1.5.” left out

For assay [4], the target named is T1, FcγRIIb. The assay can be described thus: SPR (Biacore), relative binding; compared with GpH7-A48/GpH7-B3/GpL16-k0. Here is the method:
as §1

T2 sequence (P08637 17-208): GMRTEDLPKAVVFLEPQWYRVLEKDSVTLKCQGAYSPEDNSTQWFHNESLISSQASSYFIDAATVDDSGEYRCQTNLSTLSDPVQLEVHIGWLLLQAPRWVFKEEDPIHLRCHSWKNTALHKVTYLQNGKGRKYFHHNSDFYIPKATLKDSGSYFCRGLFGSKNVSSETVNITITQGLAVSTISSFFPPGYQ

B1: GpH7-A5/GpH7-B41/GpL16-k0 (antibody, human IgG1, kappa)
heavy 1: not shown
heavy 2: QVQLVQSGAEVKKPGASVTVSCKASGYTFTDYEMHWIRQPPGEGLEWIGAIDPKTGDTAYSESFQDRVTLTADKSTSTAYMELSSLTSEDTAVYYCTRFYSYTYWGQGTLVTVSSASTKGPSVFPLAPSSKSTSGGTAALGCLVKDYFPEPVTVSWNSGALTSGVHTFPAVLQSSGLYSLSSVVTVPSSSLGTQTYICNVNHKPSNTKVDKKVEPKSCDKTHTCPPCPAPEDLGGPSVFLFPPKPKDTLMISRTPEVTCVVVDVSHEDPEVKFNWYVDGVEVHNAKTKPREEQYNSTYRVVSVLTVLHQDWLNGKEYKCKVSNKALRAPIEKTISKAKGQPREPQVYTLPPSRDELTKNQVSLTCLVKGFYPSDIAVEWESNGQPENNYKTTPPVLDSDGSFFLYSKLTVDKSRWQQGNVFSCSVMHEALHNHYTQESLSLSP
light: DIVMTQSPLSLPVTPGEPASISCQASESLVHSNRNTYLHWYLQKPGQSPQLLIYKVSNRFSGVPDRFSGSGSGTDFTLKISRVEAEDVGVYYCSQNTHVPPTFGQGTKVEIERTVAAPSVFIFPPSDEQLKSGTASVVCLLNNFYPREAKVQWKVDNALQSGNSQESVTEQDSKDSTYSLSSTLTLSKADYEKHKVYACEVTHQGLSSPVTKSFNRGEC
notes: L234D and P329R in the same H chain
Regarding B1, in the assay with FcγRIIb [1], the binding result was “binds”.

B2: GpH7-TA7/GpH7-B78/GpL16-k0 (antibody, human IgG1, kappa)
heavy 1: QVQLVQSGAEVKKPGASVTVSCKASGYTFTDYEMHWIRQPPGEGLEWIGAIDPKTGDTAYSESFQDRVTLTADKSTSTAYMELSSLTSEDTAVYYCTRFYSYTYWGQGTLVTVSSASTKGPSVFPLAPSSKSTSGGTAALGCLVKDYFPEPVTVSWNSGALTSGVHTFPAVLQSSGLYSLSSVVTVPSSSLGTQTYICNVNHKPSNTKVDKKVEPKSCDKTHTCPPCPAPEYLWGPSVFLFPPKPKDTLMISRTPEVTCVVVDVSHEDPEVKFNWYVDGVEVHNAKTKPREEQYNATYRVVSVLTVLHQDWLNGKEYKCKVSNKALPAPIEKTISKAKGQPREPQVYTLPPSRKELTKNQVSLTCLVKGFYPSDIAVEWESNGQPENNYKTTPPVLDSDGSFFLYSKLTVDKSRWQQGNVFSCSVMHEALHNRYTQKSLSLSP
heavy 2: QVQLVQSGAEVKKPGASVTVSCKASGYTFTDYEMHWIRQPPGEGLEWIGAIDPKTGDTAYSESFQDRVTLTADKSTSTAYMELSSLTSEDTAVYYCTRFYSYTYWGQGTLVTVSSASTKGPSVFPLAPSSKSTSGGTAALGCLVKDYFPEPVTVSWNSGALTSGVHTFPAVLQSSGLYSLSSVVTVPSSSLGTQTYICNVNHKPSNTKVDKKVEPKSCDKTHTCPPCPAPELLGGPDVFLFPPKPKDTLMISRTPEVTCVVVDVSHEDPEVKFNWYVDGVEVHNAKTKPREEQYNSTYRVVSVLTVLHQDWLNGKEYKCKVSNKALPLPEEKTISKAKGQPREPQVYTLPPSRDELTKNQVSLTCLVKGFYPSDIAVEWESNGQPENNYKTTPPVLDSDGSFFLYSKLTVDKSRWQQGNVFSCSVMHEALHNHYTQESLSLSP
light: DIVMTQSPLSLPVTPGEPASISCQASESLVHSNRNTYLHWYLQKPGQSPQLLIYKVSNRFSGVPDRFSGSGSGTDFTLKISRVEAEDVGVYYCSQNTHVPPTFGQGTKVEIERTVAAPSVFIFPPSDEQLKSGTASVVCLLNNFYPREAKVQWKVDNALQSGNSQESVTEQDSKDSTYSLSSTLTLSKADYEKHKVYACEVTHQGLSSPVTKSFNRGEC
notes: Heterodimerized anti-glypican-3 IgG1 antibody with two different H chains and a common L chain; also called TA7/B78
For orientation: Kd means the free concentration of one partner at which half of the binding sites on the other are occupied at equilibrium, for simple one-to-one binding. As for B2, in the assay with FcγRIIIa [2], the Kd was 4.1 nM. In addition, the KD ratio with FcγRIIIa [3] amounted to 1.

B3: GpH7-A45/GpH7-B3/GpL16-k0 (antibody, human IgG1, kappa)
heavy 1: QVQLVQSGAEVKKPGASVTVSCKASGYTFTDYEMHWIRQPPGEGLEWIGAIDPKTGDTAYSESFQDRVTLTADKSTSTAYMELSSLTSEDTAVYYCTRFYSYTYWGQGTLVTVSSASTKGPSVFPLAPSSKSTSGGTAALGCLVKDYFPEPVTVSWNSGALTSGVHTFPAVLQSSGLYSLSSVVTVPSSSLGTQTYICNVNHKPSNTKVDKKVEPKSCDKTHTCPPCPAPELLGAPSVFLFPPKPKDTLMISRTPEVTCVVVDVSHEDPEVKFNWYVDGVEVHNAKTKPREEQYNSTYRVVSVLTVLHQDWLNGKEYKCKVSNKALRAPIEKTISKAKGQPREPQVYTLPPSRKELTKNQVSLTCLVKGFYPSDIAVEWESNGQPENNYKTTPPVLDSDGSFFLYSKLTVDKSRWQQGNVFSCSVMHEALHNRYTQKSLSLSP
heavy 2: not shown
light: DIVMTQSPLSLPVTPGEPASISCQASESLVHSNRNTYLHWYLQKPGQSPQLLIYKVSNRFSGVPDRFSGSGSGTDFTLKISRVEAEDVGVYYCSQNTHVPPTFGQGTKVEIERTVAAPSVFIFPPSDEQLKSGTASVVCLLNNFYPREAKVQWKVDNALQSGNSQESVTEQDSKDSTYSLSSTLTLSKADYEKHKVYACEVTHQGLSSPVTKSFNRGEC
notes: G237A and P329R in the same H chain
Consider B3, for which the binding result with FcγRIIb [4] is “binds”.

(Values after patent publication US20180155451A1 (published 2018).)
